Results as given in patent US20200354406A1 (Bicycle, published 2020).
Starred links: 1 amine or outer side, 2 acyl side, 3 side chain; linkers in the order of their positions; H or OH if unused. Positions of bridges follow the written chain, without caps; N, C: chain ends. Non-standard residues stand in square brackets, D forms with d. Chains are numbered I, II in the order given. No end group written: not given here. *: point of attachment. TATA = O=C(CC[*:1])N1CN(C(=O)CC[*:2])CN(C(=O)CC[*:3])C1; 1Nal = N[C@@H](Cc1cccc2ccccc12)C(=O)O; Hyp = O=C(O)[C@@H]1C[C@@H](O)CN1; hArg = N=C(N)NCCCC[C@H](N)C(=O)O; Pent4ynoyl = C#CCCC(=O)*

Legend:
Assay in all cases: cell-based or functional assay
[1] = biological target: T1, OX40 on OX40 Jurkat reporter cells (Promega CS197704) (UniProt P43489 29-277, limits assumed)
T1 sequence (looked up): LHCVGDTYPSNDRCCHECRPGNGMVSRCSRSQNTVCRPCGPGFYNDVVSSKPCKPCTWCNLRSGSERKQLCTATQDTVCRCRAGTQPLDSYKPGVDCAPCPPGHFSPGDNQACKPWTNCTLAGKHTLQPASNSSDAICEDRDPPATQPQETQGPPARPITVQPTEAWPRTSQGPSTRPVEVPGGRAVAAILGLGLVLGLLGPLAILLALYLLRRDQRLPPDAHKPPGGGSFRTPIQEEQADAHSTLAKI

[2] = biological target: T1, OX40 on OX40 Jurkat reporter cells …; remark: listed apart in the source
[3] = biological target: T1, OX40 on OX40 Jurkat reporter cells …; remark: listed apart in the source

B1: BCY12721, Nectin-4:OX40 heterotandem (taken as BCY12708 [Ac-A-(SEQ ID NO: 6)-A-K(Pya)] with a PEG5 derivative of BCY8116) (peptide)
peptide 1: Ac-ACLYSPCWHPLNDCAK(Pent4ynoyl)
peptide 2: CP[1Nal][dD]CM[hArg]DWSTP[Hyp]WC
modifications: linker I:2-I:7-I:14, II:1-II:5-II:15 via TATA; not fully specified; also: heterotandem: chain 1 Lys(Pya) linked to PEG5 derivative of chain 2
EC50 (nM), Promega OX40 cell-activity assay in co-culture with Nectin-4 positive 4T1-D02 tumor cells [1]: 0.94 nM

B2: BCY12019, synthetic tetramer of four BCY11607 [A-(SEQ ID NO: 6)-A-K(Pya)] linked via C-terminal Lys(PYA) to spacer S1A (n = 23) and central hinge moiety A (TET) (peptide)
peptide: ACLYSPCWHPLNDCAK
modifications: linker 2-7-14 via TATA; not fully specified (residue 16); also: tetramer: four BCY11607 monomers clicked via S1A to central hinge A (TET)
agonism in the Promega OX40 cell-activity assay relative to BCY10549 bound to streptavidin [2]: ~10 fold | EC50 (nM), Promega OX40 cell-activity assay (NF-κB luciferase in OX40 Jurkat cells) [3]: 2.6 nM

B3: BCY12141, Nectin-4:OX40 heterotandem of BCY11607 [A-(SEQ ID NO: 6)-A-K(Pya)] and BCY8116-PEG12-N3 (peptide)
peptide 1: ACLYSPCWHPLNDCAK(Pent4ynoyl)
peptide 2: CP[1Nal][dD]CM[hArg]DWSTP[Hyp]WC
modifications: linker I:2-I:7-I:14, II:1-II:5-II:15 via TATA; not fully specified (bridges); also: PEG12 linker attached to chain 2, place not given here
EC50 (nM), Promega OX40 cell-activity assay in co-culture with Nectin-4 positive 4T1-D02 tumor cells [1]: 0.59 nM

B4: BCY12967, Nectin-4:OX40 heterotandem of a trifunctional PEG3 derivative of BCY8116 and BCY11607 (peptide)
peptide 1: ACLYSPCWHPLNDCAK(Pent4ynoyl)
peptide 2: CP[1Nal][dD]CM[hArg]DWSTP[Hyp]WC
modifications: linker I:2-I:7-I:14, II:1-II:5-II:15 via TATA; not fully specified (bridges); also: two copies of chain 1 (BCY11607) clicked via Lys(Pya) to the trifunctional PEG3 linker
EC50 (nM), Promega OX40 cell-activity assay in co-culture with Nectin-4 positive 4T1-D02 tumor cells [1]: 0.83 nM
